Experimental data published in patent US8344120B2, “Nucleic acid molecules encoding rage fusion proteins” (TransTech Pharma, Inc., priority 2006, dated 2013).
Values joined by “and” are separate entries in the source; they are usually repeats but may differ in a detail not shown here. Identical values can stand only once.

Tests used:
[1] = system: S100b/RAGE-induced production of TNF-α in THP-1 cells; assay: S100b/RAGE-induced production of TNF-α in THP-1 cells; assay type: cell-based; conditions: 10 μg protein, 24 hours
Description: Use of the RAGE fusion proteins of the present invention to modulate expression of the cellular effector TNF-α is shown in FIG. 10. THP-1 myeloid cells may be cultured in RPMI-1640 media supplemented with 10% FBS and induced to secrete TNF-α via stimulation of RAGE with S100b. When such stimulation occurs in the presence of a RAGE fusion protein, induction of TNF-α by S100b binding to RAGE may be inhibited.
Previous work has shown that the myeloid THP-1 cells may secrete TNF-α in response to RAGE ligands. In this assay, THP-1 cells were cultured in RPMI-1640 media supplemented with 10% FBS using a protocol provided by ATCC. […] The amount of TNF-α secreted by the THP-1 cells was measured 24 hours after the addition of the proteins to the cell culture using a commercially available ELISA kit for TNF-α (R&D Systems, Minneapolis, Minn.).

[2] = Pharmacokinetic profile of TTP-4000 after IV injection; assay type: in vivo, monkeys; conditions: single IV bolus 5 mg/kg; once TTP-4000 has saturated its ligands; plasma ELISA
Procedure: Following collection, the tubes were placed on wet ice (maximum 30 minutes) until centrifugation under refrigeration (at 2 to 8° C.) at 1500×g for 15 minutes. Each harvested plasma sample was then stored frozen (−70° C.±10° C.) until assayed for RAGE polypeptide using an ELISA at various time-points following the injection, as described in Example 6.
In FIG. 12 each curve represents a different animal under the same experimental conditions.
Initially, 50 uL of the RAGE specific monoclonal antibody 1HB1011 at a concentration of 10 ug/mL in 1× PBS pH 7.3 is coated on plates via overnight incubation. When ready for use, plates are washed three times with 300 uL of 1× Imidazole-Tween wash buffer and blocked with 1% BSA. […] The samples are allowed to incubate at room temperature for one hour. After incubation, the plates are plates are washed three times. A Goat Anti-human IgG1 1 (Sigma A3312) AP conjugate in 1×PBS with 1% BSA is added and allowed to incubate at room temperature for 1 hour. The plates are washed three times. Color was elucidated with paranitrophenylphosphate.

[3] = system: allogeneic rejection of transplanted islet cells; assay: Allogeneic islet transplantation in diabetic B6 mice; assay type: in vivo; conditions: for day of graft loss for each animal: BALB/c islets in B6 mice; for day of graft loss, Mean: n 8
Procedure: C57BL/6J (6-8 week old) (B6) mice were made diabetic by a single intravenous injection of streptozotocin (STZ) (Sigma Chemical Co., St. Louis, Mo.) at 200 mg/kg.
BALB/cJ (6-8 week old) (BALB) mice served as donors for islet transplantation, thus providing an allo-mismatch for islet transplants.
Mice (BALB/c) were anesthetized with ketamine HCl/xylazine HCl solution (Sigma, St. Louis Mo.). After intraductal injection of 3 ml of cold Hank's balanced salt solution (HBSS, Gibco, Grand Island N.Y.) containing 1.5 mg/ml of collagenase P (Roche Diagnostics, Branchburg, N.J.), pancreata were surgically procured and digested at 37° C. for 20 mins. Islets were washed with HBSS and purified by discontinuous gradient centrifugation using Polysucrose 400 (Cellgro, Herndon Va.) having four different densities (26%, 23%, 20%, and 11%). The tissue fragments at the interface of the 20% and 23% layers were collected, washed and resuspended in HBSS. Individual islets, free of attached acinar, vascular and ductal tissues were handpicked under an inverted microscope, yielding highly purified islets for transplantation.
Streptozotocin-induced diabetic C57BL/6 (B6) mice received islet grafts within 2 days of the diagnosis of diabetes. BALB/cJ (6-8 week old) (BALB) mice served as donors for allogeneic islet transplantation. For transplantation, 500-600 freshly isolated islets (i.e., approximately 550 islet equivalents) from donor mice were picked up with an infusion set and transplanted into the subcapular space of the right kidney of a recipient.
Test compounds were administered as soon as the islets were transplanted; administration continued for about 60 days, depending upon how the control animal was faring.
Islet graft function was monitored by serial blood glucose measurements daily for the first 2 weeks after islet transplantation, followed by every other day thereafter. Reversal of diabetes was defined as blood a glucose level of less than 200 mg/dl on two consecutive measurements. Graft loss was determined when blood glucose exceeded 250 mg/dl on two consecutive measurements.

B1: TTP-4000: four domain RAGE fusion protein: human RAGE N-terminal sequence (to position 251) linked to human IgG Fc (γ1) without hinge; SEQ ID NO: 34/56 (protein)
chain: QNITARIGEPLVLKCKGAPKKPPQRLEWKLNTGRTEAWKVLSPQGGGPWDSVARVLPNGSLFLPAVGIQDEGIFRCQAMNRNGKETKSNYRVRVYQIPGKPEIVDSASELTAGVPNKVGTCVSEGSYPAGTLSWHLDGKPLVPNEKGVSVKEQTRRHPETGLFTLQSELMVTPARGGDPRPTFSCSFSPGLPRHRALRTAPIQPRVWEPVPLEEVQLVVEPEGGAVAPPSVFLFPPKPKDTLMISRTPEVTCVVVDVSHEDPEVKFNWYVDGVEVHNAKTKPREEQYNSTYRVVSVLTVLHQDWLNGKEYKCKVSNKALPAPIEKTISKAKGQPREPQVYTLPPSRDELTKNQVSLTCLVKGFYPSDIAVEWESNGQPENNYKTTPPVLDSDGSFFLYSKLTVDKSRWQQGNVFSCSVMHEALHNHYTQKSLSLSPGK
- reduction of S100b induction of TNF-α ([1]; S100b 0.1 mg/ml FAC): ~70%
- S100b induction of TNF-α, comparison in words ([1]; S100b 0.1 mg/ml): at least as effective in blocking S100b induction of TNF-α as is sRAGE
- terminal half-life [2]: greater than 300 hours
- day of graft loss for each animal ([3]; 300 ug + 30 ug qod ip): 12 day (2×) and 11 day (2×) and 8 day (2×) and 13 day and 14 day
- day of graft loss, Mean ([3]; 300 ug + 30 ug qod ip): 11.125 days
- day of graft loss for each animal ([3]; 300 ug LD + 100 ug qod ip): 13 day (2×) and 12 day and 16 day (2×) and 15 day and 14 day (2×)
- day of graft loss, Mean ([3]; 300 ug LD + 100 ug qod ip): 14.125 days
- time before detection of graft failure, in words ([3]; Groups 1 and 3 versus untreated, PBS or human IgG1): increase in the time before detection of graft failure
